Residue numbers refer to the chain shown, from its start. Read-outs that look alike come from different tables or passages of the source. Oligonucleotides are written 5' to 3', each unit as a sugar letter and its base; * is a phosphorothioate linkage, no mark a phosphodiester; rarer units and linkages stand in square brackets, end groups in braces. Plain capitals give the bases only. d = 2'-deoxy (DNA); r = 2'-OH (RNA); f = 2'-fluoro
Columns and labels:
[1] = system: full length human vWF binding to lyophilized platelets; assay: Full length human von Willebrand Factor platelet binding assay (FACS); format: cell-based; conditions: 5 nM full length human vWF, lyophilized platelets, botrocetin; for Inhibition of full length hVWF binding in FACS assay, IC50 range: both bounds in nM
Protocol: The amount of vWF bound to fixed platelets can be measured with an antibody to vWF. The fluorescence signal from bound antibody incubated with a fluorescein conjugated secondary antibody is then detected and quantified by flow cytometry. The ability of an aptamer of the invention to block vWF binding to platelets is correlated with a reduction in fluorescence signal.
Aptamer potency to block human vWF binding to lyophilized platelets was assessed by flow cytometric analysis. Titrations of aptamers (0 nM, 0.1 nM to 1000 nM) were pre-incubated briefly with 5 nM of full length human vWF in FACS buffer (PBS plus 0.5% bovine serum albumin) at room temperature in a volume of 50 uL. Another 50 uL containing 5 uL of lyophilized platelets plus 1 uL of 0.1 U/uL of botrocetin in FACS buffer was added to aptamer/vWF. This reaction was allowed to proceed for 15 minutes at 37 degrees C. after which 200 uL of FACS buffer was added. Platelets were collected by a 6 minute spin at 1470 RCF and the supernatant was discarded. The pellets were resuspended in 100 uL of FACS buffer containing a 1:100 dilution of anti-vWF antibody and were incubated at room temperature for 30 minutes. After dilution with 200 uL of FACS buffer, the platelets were spun at 1470 RCF for 6 minutes and the supernatant was discarded. The pellets were resuspended in a 1:100 solution of anti-IgG2a-FITC antibody and were incubated in the dark for 30 minutes at room temperature. The entire 100 uL was diluted into 200 uL of FACS buffer and analyzed immediately by flow cytometric analysis in the FACSCAN. Artifactual data from contaminating debris was eliminated from the analysis by drawing a gate around the population of single and aggregated platelets. Mean fluorescent intensity (“MFI”) readings were quantified for each sample analyzed by flow cytometry. Background MFI was subtracted from all data points. Percent inhibition was reported by calculating the percent value of binding of full length human vWF to platelets in the presence of aptamer at a given concentration relative to binding in the absence of any aptamer (see FIG. 7). IC50 values were determined by fitting the percent inhibition of vWF binding to platelets as a function of aptamer concentration to the equation: % inhibition=% inhibitionmax/(1+IC50/aptamer conc.)

[2] = system: full length human vWF (SEQ ID NO 7); assay: dot blot KD determination and extent of binding, full length human vWF; conditions: rRdY minimers; 8 point titration 0-300 nM; read-out: Full length human vWF KD;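 further: dot blot binding of aptamers to full length human vWF across a protein titration, incubated 30 minutes at room temperature in 1x DPBS with BSA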
[3] = system: full length human vWF; assay: 3-point dot blot screen, full length human vWF; format: binding; conditions: 20 nM full length human vWF, ratio of fraction of aptamer bound with target protein to fraction bound without protein
Description: When a significant positive ratio of binding of DNA in the presence of human or rabbit vWF A1 domain versus in the absence of protein was seen, the pools were cloned using the TOPO TA cloning kit (Invitrogen Cat. #45-0641, Carlsbad, Calif.) according to the manufacturer's instructions. Round 7 and 11 pool templates were cloned and sequenced (218 total sequences), producing 146 unique clones within 12 sequence families of which sequences from six families show vWF target binding activity. All unique clones were assayed twice in a 3-point dot blot screen (no protein target control, 20 nM full length human vWF (Calbiochem Cat. #681300, La Jolla, Calif.), or 20 nM rabbit vWF A1 domain. The data is presented in the third and fourth columns of Table 17 below as the ratio of the fraction of the aptamer bound to the nitrocellulose in the presence of the target protein to the fraction of aptamer bound in the absence of the target protein.

[4] = system: rabbit vWF A1 domain (SEQ ID NO 6); assay: 3-point dot blot screen, rabbit vWF A1 domain; format: binding; conditions: for Screen Rabbit/No Protein: 3-point dot blot screen, 20 nM rabbit vWF A1 domain, ratio of fraction of aptamer bound with target protein to fraction bound without protein; for Screen- Rabbit/No Protein: DNA SELEX 1 aptamers, 100 nM rabbit vWF A1 domain, ratio of fraction bound with target to without
How it was run: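 Rabbit vWF A1 domain binding was screened by dot blot using three conditions: no target protein, human vWF, and rabbit vWF A1 domain at 100 nM (20 nM in the screen run twice). Radiolabeled aptamer bound to nitrocellulose was quantified, and results are expressed as the ratio of bound fraction with protein to bound fraction without protein.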

[5] = target: human vWF A1 domain (SEQ ID NO 5) (Homo sapiens, UniProt P04275, T1381A); assay: 3-point dot blot screen, human vWF A1 domain; format: binding; conditions: DNA SELEX 1 aptamers; 100 nM human vWF A1 domain; ratio of fraction bound with target to without
How it was run: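 Values are ratios of aptamer fraction retained on nitrocellulose with 100 nM vWF A1 domain (human or rabbit) versus a no-protein control. Unique clones from rounds 9 and 12 pools were transcribed, desalted and 5'-32P labeled before this three-point dot blot screen.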

[6] = read-out: Inhibition of full length hVWF binding in FACS assay, Average IC50
[7] = units in the cell: lower bound pM, upper bound nM, read-out: Inhibition of full length hVWF binding in FACS assay, IC50 range

Sequence of rabbit vWF A1 domain (SEQ ID NO 6) (as listed by the source): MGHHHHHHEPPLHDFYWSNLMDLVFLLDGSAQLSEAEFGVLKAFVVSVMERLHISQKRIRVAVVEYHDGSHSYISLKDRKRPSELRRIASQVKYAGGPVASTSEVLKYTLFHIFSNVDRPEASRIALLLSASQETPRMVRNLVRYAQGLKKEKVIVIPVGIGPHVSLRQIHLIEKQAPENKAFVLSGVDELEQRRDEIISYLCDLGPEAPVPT
Sequence of human vWF A1 domain (SEQ ID NO 5) (P04275 with tags, fused parts or gaps T1381A): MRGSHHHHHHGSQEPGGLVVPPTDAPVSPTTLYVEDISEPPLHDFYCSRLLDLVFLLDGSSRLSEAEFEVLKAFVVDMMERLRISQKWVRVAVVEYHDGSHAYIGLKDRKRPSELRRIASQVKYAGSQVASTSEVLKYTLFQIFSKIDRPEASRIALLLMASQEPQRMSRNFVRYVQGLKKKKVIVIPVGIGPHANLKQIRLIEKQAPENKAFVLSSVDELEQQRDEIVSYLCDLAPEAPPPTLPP

## GGACCACCCUCGCAAGCAUUUUAAGAAUGACUUGUGCCGCUGGUCC (rGrGrAfCfCrAfCfCfCfUfCrGfCrArArGfCrAfUfUfUfUrArArGrArAfUrGrAfCfUfUrGfUrGfCfCrGfCfUrGrGfUfCfC) [SEQ ID NO 169, minimized rRfY aptamer]
[1]; [6]
  IC50: 6900 pM
[1]; [7]
  IC50: 103 to 17000 pM

## GGAGCCACACGAGAGTGGCGGGTTGTAATTACCACGCATGGCTCC (chemistry not given here) [SEQ ID NO 196, minimized rRdY aptamer]
[1]
  Inhibition of full length hVWF binding in FACS assay, IC50 range: no activity

## GGAGCCACACGACATTGGCGAGAGCCACGCATGGCTCC (chemistry not given here) [SEQ ID NO 194, minimized rRdY aptamer]
[1]
  Inhibition of full length hVWF binding in FACS assay, IC50 range: no activity

## GGAGCTCCAGTGTTTTATCTAATAACCGTGCGGTGCCTCCGTGAGCTCC (chemistry not given here) [SEQ ID NO 209, minimized DNA aptamer]
[1]
  Inhibition of full length hVWF binding in FACS assay, IC50 range: no activity

## GGAGCTGCGGTTTGGTCGACGTCAGCTCC (DNA, backbone not given here) [SEQ ID NO 210, minimized DNA aptamer]
[1]
  Inhibition of full length hVWF binding in FACS assay, IC50 range: no activity

## GGAGCGCACTCAGCCACACGACATTGGCGGGTTGTAATTACCACGCATGGCTG (chemistry not given here) [SEQ ID NO 186, minimized rRdY aptamer]
[1]; [6]
  IC50: 1300 pM
[1]; [7]
  IC50: 971 to 2200 pM

## GGAGCCACACGACATTGGCGGGTTGTAATTACCACGCATGGCTCC (rGrGrArGdCdCrAdCrAdCrGrAdCrAdTdTrGrGdCrGrGrGdTdTrGdTrArAdTdTrAdCdCrAdCrGdCrAdTrGrGdCdTdCdC) [SEQ ID NO 189, minimized rRdY aptamer]
[1]; [6]
  IC50: 1100 pM
[1]; [7]
  IC50: 564 to 1600 pM
[2]
  Kd: 1 nM

## GGACCACCCUCGCAAGCAUUGAGAAAUGACUUGUGCCGCUGGUCC (rGrGrAfCfCrAfCfCfCfUfCrGfCrArArGfCrAfUfUrGrArGrArArAfUrGrAfCfUfUrGfUrGfCfCrGfCfUrGrGfUfCfC) [SEQ ID NO 172, minimized rRfY aptamer]
[1]; [6]
  IC50: 4300 pM

## GGAGCGCACTCAGCCACGGGGTGGGTAGACGGCGGGTATGTGGCT (chemistry not given here) [SEQ ID NO 177, minimized rRdY aptamer]
[1]; [6]
  IC50: 3000 pM

## GGTAGCGACTCTGTGGAGCTGCGGTTTGG (DNA, backbone not given here) [SEQ ID NO 211, minimized DNA aptamer]
[1]
  Inhibition of full length hVWF binding in FACS assay, IC50 range: no activity

## GGAGCGCACUCAGCCACCCUCGCAAGCAUUUUAAGAAUGACUUGUGCCGCUGGCU G (rGrGrArGfCrGfCrAfCfUfCrArGfCfCrAfCfCfCfUfCrGfCrArArGfCrAfUfUfUfUrArArGrArAfUrGrAfCfUfUrGfUrGfCfCrGfCfUrGrGfCfUrG) [SEQ ID NO 165, minimized rRfY aptamer]
[1]; [6]
  IC50: 6400 pM
[1]; [7]
  IC50: 562 to 14400 pM

B1: AMX.236.G1 (nucleic acid)
chain: CTACCTACGATCTGACTAGCCTCAGATTGACTCCGGCTGACTTGTTTTAATCTTCTGAGTGCTTACTCTCATGTAGTTCC
modifications: DNA, backbone and methylation of C not given here
[1]; [6]
  IC50: 46000 pM

B2: AMX238.F5: DNA SELEX 2 aptamer clone (nucleic acid)
DNA: CTACCTACGATCTGACTAGCGGAATGAGAAGCTGGTGGATTGCTCAGGTCTGCTGGCTGCTTACTCTCATGTAGTTCC
modifications: DNA, backbone not given here
notes: DNA SELEX 2 aptamer clone
[3]
  Screen- Human/No Protein: 1.05
[4]
  Screen Rabbit/No Protein: 4.40

B3: AMX202.A8: DNA SELEX 1 aptamer clone (nucleic acid)
DNA: CTACCTACGATCTGACTAGCAAGGGGATTGGCTCCGGGTCTGGCGTGCTCGGCACTTCCGGCTTACTCTCATGTAGTTCC
modifications: DNA, backbone not given here
notes: DNA SELEX 1 aptamer clone
[5]
  Screen- Human/No Protein: 1.27
[4]
  Screen- Rabbit/No Protein: 1.27

B4: AMX202.F6: DNA SELEX 1 aptamer clone (nucleic acid)
DNA: B3 DNA with T56C, C58T
modifications: DNA, backbone not given here
notes: DNA SELEX 1 aptamer clone
[5]
  Screen- Human/No Protein: 1.49
[4]
  Screen- Rabbit/No Protein: 1.46

B5: AMX202.A3: DNA SELEX 1 aptamer clone (nucleic acid)
DNA: CTACCTACGATCTGACTAGCGGAATGAGAGCGCTGATGGATTGCTCAGGTCTGCTGGCTGCTTACTCTCATGTAGTTCC
modifications: DNA, backbone not given here
notes: DNA SELEX 1 aptamer clone
[5]
  Screen- Human/No Protein: 2.28
[4]
  Screen- Rabbit/No Protein: 2.10

B6: AMX237.C1: DNA SELEX 2 aptamer clone (nucleic acid)
DNA: B5 DNA with A29G, G30A, C31T, A36G
modifications: DNA, backbone not given here
notes: DNA SELEX 2 aptamer clone
[3]
  Screen- Human/No Protein: 0.76
[4]
  Screen Rabbit/No Protein: 3.47

B7: AMX236.C1: DNA SELEX 2 aptamer clone (nucleic acid)
chain: B5 DNA with G30A, C31T, C33T, A36G
modifications: DNA, backbone not given here
notes: DNA SELEX 2 aptamer clone
[3]
  Screen- Human/No Protein: 1.03
[4]
  Screen Rabbit/No Protein: 3.28

B8: AMX236.A11: DNA SELEX 2 aptamer clone (nucleic acid)
chain: CTACCTACGATCTGACTAGCTTGGTAGCGACTCTGTGGAGCTGCGGTCTGGCCGACGTCAGCTTACTCTCATGTAGTTCC
modifications: DNA, backbone not given here
notes: DNA SELEX 2 aptamer clone
[3]
  Screen- Human/No Protein: 2.02
[4]
  Screen Rabbit/No Protein: 2.02

B9: AMX237.H8: DNA SELEX 2 aptamer clone (nucleic acid)
DNA: B8 chain with C33T, C48T, C52T, G57A
modifications: DNA, backbone not given here
notes: DNA SELEX 2 aptamer clone
[3]
  Screen- Human/No Protein: 1.21
[4]
  Screen Rabbit/No Protein: 1.41

B10: AMX237.H10: DNA SELEX 2 aptamer clone (nucleic acid)
DNA: B8 chain with T34A, T36A, C48T, C52T
modifications: DNA, backbone not given here
notes: DNA SELEX 2 aptamer clone
[3]
  Screen- Human/No Protein: 1.71
[4]
  Screen Rabbit/No Protein: 1.94

B11: AMX236.E6: DNA SELEX 2 aptamer clone (nucleic acid)
chain: B8 chain with T32C, C48T, C52T
modifications: DNA, backbone not given here
notes: DNA SELEX 2 aptamer clone
[3]
  Screen- Human/No Protein: 1.31
[4]
  Screen Rabbit/No Protein: 1.49

B12: AMX236.C12: DNA SELEX 2 aptamer clone (nucleic acid)
chain: B8 chain with T34C, C48T, C52T
modifications: DNA, backbone not given here
notes: DNA SELEX 2 aptamer clone
[3]
  Screen- Human/No Protein: 1.99
[4]
  Screen Rabbit/No Protein: 2.24

B13: AMX237.D5: DNA SELEX 2 aptamer clone (nucleic acid)
DNA: B8 chain with T32A, C48T, C52T, C53T
modifications: DNA, backbone not given here
notes: DNA SELEX 2 aptamer clone
[3]
  Screen- Human/No Protein: 1.41
[4]
  Screen Rabbit/No Protein: 1.48

B14: AMX236.G4: DNA SELEX 2 aptamer clone (nucleic acid)
chain: B8 chain with C33T, C41A, C48T, C52T, C53T
modifications: DNA, backbone not given here
notes: DNA SELEX 2 aptamer clone
[3]
  Screen- Human/No Protein: 1.70
[4]
  Screen Rabbit/No Protein: 1.72
